Series [1] relates to CC1(C)C2=C(Cl)C(=O)C(Cl)=CC2=Nc2ccc(OP(=O)(O)O)cc21. The series is described as follows: Michaelis-Menten kinetics of yeast-displayed AP with DDAOP. The format is biochemical, E. coli. As to conditions: other: substrate DDAOP, yeast display, pH 8.0. An excerpt:
(§1) Preparation of alkaline phosphatase protein constructs.
(§2) Analysis of alkaline phosphate activity.
For kinetic measurements on the μSCALE platform, a series of images were acquired at set intervals with 600/60 nm excitation/655 nm long pass emission filters to generate single-cell reaction time courses for each cavity in the array. […] Error bars reflect the standard deviation across all cavities in each spot and were used to fit a calibration line using weighted least squares. In both cases, the linear regime of each kinetic time series was used to estimate reaction rates.
(§3) Alkaline phosphatase was used as a model system.

Series [2] shares this test system. The series is described as follows: Michaelis-Menten kinetics of purified AP with DDAOP. The note with it: other: substrate DDAOP, purified protein, pH 8.0. Type of series: biochemical, E. coli.
Source text: as §1, §2, §3

The target of series [3] is fluorescently labeled phosphate-binding protein (PBP) from E. coli (Life Technologies, PV4406) (Escherichia coli, UniProt P0AG82, A222C). As to conditions: inorganic phosphate ([Pi]); two-state binding isotherm; TrisHCl pH 7.6.
Sequence of fluorescently labeled phosphate-binding protein (PBP) from E. coli (Life Technologies, PV4406) (P0AG82 26-346 A222C): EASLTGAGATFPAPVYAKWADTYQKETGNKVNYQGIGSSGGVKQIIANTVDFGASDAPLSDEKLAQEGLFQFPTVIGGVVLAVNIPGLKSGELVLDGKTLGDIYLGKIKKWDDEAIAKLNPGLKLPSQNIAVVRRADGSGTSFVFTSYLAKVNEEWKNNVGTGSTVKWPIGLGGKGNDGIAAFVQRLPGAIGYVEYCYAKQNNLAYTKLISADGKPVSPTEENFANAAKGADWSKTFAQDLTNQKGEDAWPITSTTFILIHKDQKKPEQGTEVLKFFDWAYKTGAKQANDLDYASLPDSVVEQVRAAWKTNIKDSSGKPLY
Experimental: Briefly, 100 μL of each sample was mixed with 100 μL of 1 μM PBP in Phosphate Sensor Detection Buffer (20 mM TrisHCl pH 7.6, 0.05% Triton X-100), and fluorescence of the mixture was immediately read out at an excitation/emission of 430/450 nm on a Biotek SYNERGY™ H4 plate reader spectrophotometer. When measuring phosphate content in the AP Reaction Buffer, the buffer was diluted 1:20 in water prior to incubation with the sensor in order to minimize interference from the concentrated MOPS and salt solutions on the PBP binding thermodynamics. PBP stocks were stored as 10 μM aliquots in Phosphate Sensor Storage Buffer (10 mM TrisHCl pH 7.6, 50 mM NaCl) at −80° C. and individually thawed prior to use. […] Error bars reflect the standard deviation over three measurements.

Turning to “E. coli alkaline phosphatase (AP), wild type (WT), GENBANK Accession Number M13345, yeast-displayed (Escherichia coli K-12)”, in series [1], the Km is 4.3 ± 0.4 µM.

As to “E. coli alkaline phosphatase (AP) variant R166S, yeast-displayed (Escherichia coli K-12; R188S)”, the Km in series [1] was determined as 55 ± 7 µM.

Take “E. coli alkaline phosphatase (AP) variant R166S, purified protein (Escherichia coli K-12; R188S)”: in series [2], the Km turned out to be 51 ± 4 µM, the kcat was 0.7 ± 0.2 s⁻¹ and the kcat/Km entry is listed as “(1.4 +/− 0.4) × 10^4 M^-1 s^-1”.

In the case of “E. coli alkaline phosphatase (AP), wild type (WT), GENBANK Accession Number M13345, purified protein (Escherichia coli K-12)”, in series [2] (50 pM), the Km was found to be 4.1 ± 0.1 µM, the kcat turned out to be 15.7 ± 0.2 s⁻¹ and the kcat/Km result is on record as “(3.8 +/− 0.1) × 10^6 M^-1 s^-1”.

In turn, `O=P(O)(O)O` [inorganic phosphate] registered a Kd in series [3] of 0.94 µM. This lies in the sub-micromolar range.

The term Km denotes the substrate concentration at which the rate is half of its maximum. The kcat is the maximal rate divided by the concentration of active sites. Broadly, the Kd is the free concentration of one partner at which half of the binding sites on the other are occupied at equilibrium, for simple one-to-one binding. High values mean a looser complex, low ones a tighter complex.

These data come from patent publication US10370653B2, “Micro-screening apparatus, process, and products” (priority 2015, dated 2019).
